Measured values taken from the supplement of paper PMC12636428.

System: Saccharomyces cerevisiae
Assay: transcriptional activation domain activity (GFP:mCherry ratio, weighted mean of sorted bins, harmonized to initial dataset scale) (arbitrary fluorescence ratio units); higher = stronger transcriptional activation
Details: beta-estradiol 1 µM; induction time 4 h
Summary of the method: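 The listed activation activity is a read-weighted mean of bin median fluorescence, averaged across barcodes and linearly mapped onto the initial dataset scale. Barcoded tiles, fused to an estradiol-inducible synthetic transcription factor, were integrated at URA3 in yeast diploids bearing a GFP reporter. Cells were held 4 hours at 30 °C in SC with 1 uM beta-estradiol, sorted into 8 GFP:mCherry bins, and sequenced, and tiles with fewer than 50 reads were excluded.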

| Sequence | transcriptional activation domain activity |
| --- | --- |
| PDEDEVVENAEKPKRRRRAKPTEEEQNEEQQNEEDAVENAGKKKRGKRTKPTE | 39900 |
| PDELVKSASRLEIDDPSPVTADGAKKSKNQLKKEQKARQLQLQRSLGPASGAP | < 6570 |
| PDEVASEASQPAEPAAASRAESPAAASVYEEAREPQEVQEERVASPVVAATPA | 48300 |
| PDFYPLFYSRLIPLSVISFLVYTALFFLVFWPQYLFLVIFHGWGAWPTAIILF | 52600 |
| PDGSAITGSAVTKRKQSKSRNGCITCKAKRLKCDETKPSCQQCAKRSVTCGGY | 28100 |
| PDHIHHHSNNMNNEDNDNNNGSNNKVSNDSKLDFVTDDLEYHLANTHPDDTND | 47000 |
| PDIKKRPRKKSRRASAEGSEIGTESGGSDDGRQESAQRRKVERKERAGSSKEV | 47100 |
| PDISAYDDERLKEGRLIAEFILNRTQYAPDETSKNDRVSDSEVPWMDFPSELN | 37600 |
| PDLSIYMVDAFVHVLITAGLRDSAAVLHERIMSEFLDRILLILRAAVRLNKII | 62400 |
| PDRLDGRCVPDLSFFSVGDFTPISLVFFLSFPLLLFFFSFFFFFFFFFFFFFF | 37700 |
| PDRPCYSAIVRISTSRLHFYECKLYAHAFFQGLRYFMYHWRWTTTLVLMSLFL | 47200 |
| PDVEQMVLHFYLQLCYEFFDRCPTLFHASLGLINPSTSCCCGLLFLLFFVFLY | 72800 |
| PDVLRKGAKFFCDETVLVKLQIVTLAAKLLVLSPNNLTLILLTKYVFGLARYD | 63000 |
| PDYLFSRLFVCAFISLFVSLSFLQLGNGLRDLQFRVFSIFWVSILPAIIMSQI | 52200 |
| PEAAPGEEVKEEAGEEQKPDRRDRRGRDRGGRGGRDRGRGRGGASRGGKRGDT | 26700 |
| PEALIQFNQVWVNHFKDPFTNIYYHQSPELSGSKYYELIYLRAFICLMFCFQF | 55100 |
| PEEEEQAEAGVDSSIVEIAPKRGRGRPRKSLPTEGTTAEAPAKRGRGRPKKVS | 27600 |
| PEEKKEKAAEGEATKKEGEVGKKKGKKGDKKKEASGEQAPAAAAPAEEKKAEQ | < 6570 |
| PEKCGDLVVIRGGRLHFRSSAVRLHLLQQMGKTLLLLKDAHLQLTLRTLLYAR | 46500 |
| PEKLFGLMHAAISNFPEWETKVGSWFLLGIWHPRFFKAAKEILPYCRRSCISF | 64500 |
| PELGRIVRWKWFEWTAKALFIQLYSWSLQAFLFSVGWFNRFLVRKDIVLQIIM | 51900 |

| Sequence | transcriptional activation domain activity |
| --- | --- |
| PELIGFCCFSMRFFVFIDLLGTLILPATVVYLIYLIIVVATRASAFPQIAIIM | 59400 |
| PELVPLDLKNPELDSSFDLNMNLDLNLNLDSNFNIALNRSDSSGSTMNLDYKL | 101000 |
| PENWTMDSWPLYWPQALIDTIPSLQLSIPPMDLTTLDNPLAPFAFFMFLFSWQ | 53400 |
| PEPVAAPAPANDGFSEVQHNRGGRGRGGQYQGEGRGGYRGRGRGGPRGGGEFR | 24500 |
| PEPVSEEPKAESSRTATAPPSLARRAASYFVSSFRGRTLHGTKIDVPDGYTGL | 49000 |
| PEQSSSNAVSDAADQLANVKLEDGTNAAASSAPRTRKPRARKPKRKAAAANAS | 12100 |
| PESINYVLEQGSLLSRFTYRFVIFICKLARINQPTYRLLIRFGLLDMILRICV | 87400 |
| PEVMHALLFWTSNLLLFGINAIAFSKVSWFITLIRLVVNCRQKVALWMLMVFS | 60100 |
| PFAFLLLLLFPLVLFLPALLLLFLPLLPLLPLLLWILWIQTLQSLFSFPDISD | 46900 |
| PFCMVNAKTVTLRMIESIHKLRRVLVRSEDEIIRLISPVSAKVLCTCLPLFEM | 60400 |
| PFFRVHHLYLPSLLQVVNLAILTSHALFNFIPHFYIVCIIVFWEGLLGGLVYV | 60500 |
| PFFSLDNIMATFDTSTGKLRIWGIRAKPRFVWFCSKEHLLPCMNVKMIRYNSI | 64600 |
| PFGFLTDEVKNSYLRCSYKWSFHHIPNLLIAIRERRLDPLLIWAMLAITVRFS | 79500 |
| PFGICGSFLGLFFCVMGLIAHMPSIWLVRGGNHSYTSLPGNSWLCVIFCLFSC | 49200 |
| PFIIVTGLVVFVYYSYLDRIFLVLLRKLHRKALAIAYFVPLNIFIFLFIISYC | 63700 |
| PFLFKITVLYVLEVIDGILDVSRFFPAVQLELCCLMFLWCCCGMVLLWFCLTR | 58800 |
| PFLFPSLFYSQYHTIPFSFSCHFIPLSFSFPSFYSGSPIPFPFLFSSSYLFLF | 58300 |
| PFLLLLPVSLFSFLFFHFFYLFVSFSFFLFCYFFYFLHFFLTFLIFLLFLTFL | 34900 |
| PFLLYTSGFLFMGATEEQMNLLTSAGVSHVSYILLLYSISFLLFLFVCMLLHL | 33400 |
| PFLPSSLPPFLPSSLPPFLPSSLPPFLPSSLPPSLLFSFLFSFPLPSPPSLPL | 64000 |
| PFLTTYPESYVHRAFEFGRVFDYRWTVNWRMIPEKTFVSTWFAHQLLLCHVIA | 56500 |

| Sequence | transcriptional activation domain activity |
| --- | --- |
| PFPLLPFPLLPFPLLPSPLPIPLLPIPLLSFPLLPFPFLPFPLLSYPLFHFTV | 44800 |
| PFPLPLLLPCPLPLLFPLSFPLLLLLPFLLPLLFTLSFTLLFMLSFPLLFMLS | 47900 |
| PFPLSFPLPFLLSFPLPFLLSFPLISSQPFPLSLLSFPPFPPLSPLPPPSPFF | 44600 |
| PFQFLLLKSLSIQKHSDLIIRGCSHFYVGVLSCILNFFLGSWSAWLKRFWYML | 80300 |
| PFRIGRIVAWISYGIHQVGQWGILAKVQRAKEEWSNTYRWWNWSMVYLNGFML | 59700 |
| PFSFGLFLLYLCSCLTNCMTHIVFCLCSNIQLFFRFWFFYWIDHRPLGFFLAR | 44700 |
| PFSFSNTDLTALFTHPEGPNCTNTNNGNVDVCNRASTDATDANIENLSFLNMA | 116000 |
| PFSHFVRMLLIYLPSLRLIVYYAFSFTLIMPFVLGYSVFMPSNWDTATFFFSY | 61900 |
| PFSNFFSNLFLYLFFDLFSNFFFIFSLPFILFHIISSIFNLNFNLLLLLIHLF | 65800 |
| PFTELFRRFLFSNIRFTSKVTIISYIGTYYAIGAAWIMTTANYFAIGWFNGYL | 46500 |
| PFTIVFILPFDFSSTQYRICEHNCDAPLGYISSQFTRRLWVVLYWTMYLLTWL | 67000 |
| PFVTRCQRNIRIACLICFFFTYSLFHLAFYVGLERRNVPVPLGNHFWSVYGFA | 38200 |
| PFVVTLLNLWKIWSLKLLKEKARLVVDGGAFVMGCVDETVTLRGHDDHKWTKD | 56800 |
| PGAAGGEKEKKKRQRTKNKKVDAAAPAEDAPAAAAEKLAKLEVAPADDDAAAK | 25900 |
| PGEVSEAEANGDAPKADDAAAPESGEAAKPKKKKKKAAKKPKKEGEEGAAAAP | 37700 |
| PGEVSEAEANGDAPKAEAAVAPDSDEAAKPKKKKKARKPKAAKKGEDGEPAAA | 17100 |
| PGEVSEAEANGDAPKVEAAAKPKKKKKKAARKPKTKEEDGAPAAAPTEEAAPA | 10100 |
| PGEVSEAEANGEVKAEGEVVATDDAAKPKKKKSKKSRKARAAKAATEDEEGAA | < 6570 |
| PGKCINEFIEVVCKLADSGRLSLRMLVDIVVLFWNLTRVHCEQFSHKFLRLLH | 15900 |
| PGLILVYSHLNLLLRNHADLEMIYIIGPGHGAPAALAALWLEGSLERFYPGEY | 31000 |
| PGLVGVFFIFSSPFSGFCFCFCFCLFELIFFFFFFFYYFLSRIGVLTRLSAGF | 45800 |

| Sequence | transcriptional activation domain activity |
| --- | --- |
| PGVRGNTESIFLLICNLPYLEHPDKVARTVYKIIWGEHHRNLLRLTYWLHRCP | 68200 |
| PGYVVQYKNSLIGKHFKMLQQLGVFYLHDLCAPLILDLWKATGELGAYLWFPE | 40900 |
| PHGLLLPLLAHLFSLVLKISFLFCFEYKLAIFIFALVWQSLVVASLTCGFVFV | 55700 |
| PHHKWLVPTPFASHAFHPVDGYAQSVPYHLFVFLFPMHRLLYLILFVAVNFWS | 48000 |
| PHHKWVVPTPFSSHAFHPVDGWLQSIPYHIFILVFPLHRVLYLVLFVLINFWT | 59200 |
| PHLFVNQGKLESYAGVVTRVVDLVLGIYVIDDCHMLILTYWPLLSPLTVLRTG | 51000 |
| PHTYNVILFLVIHDPEADVINRVKAYVTYVLRTMPKQLRLESFEMVFIRVLHL | 54600 |
| PIARESSSLFLANTPYLSDFLTMGSSYGGSGGFAKSITADPSLDYFNYKNHSH | 68600 |
| PIDPETGRPKKGRPRKSVDAASAVGTSSTGEPQAKRARGRPKKNAGAVAATAV | 51100 |
| PIEYNTWLIFRQFVDIILLNDFVAYCMFAFSHFRVPNNLSITMHLLRWICGLA | 42000 |
| PIGIFFFFPFVWLFRVFIFLCISYCCFLVPYVCSRGSSFFWLPVSTLFLSFLF | 45000 |
| PIHALFCTHIWLLFKLCILCVLFLLSLLCLYGGSMINTGLRIILHLLLCVYLF | 81800 |
| PIHAVYLFHLISSTFLLKYIYTYRFYFIFFLPFFLIWILCAAYWWLFFTHHIP | 54600 |
| PILIPGGLGVVLLHLPASFTKIECNESGFHQFIKRRCRLLLGVEPGMKVVVLT | 60900 |
| PILLILLLLHVGFFGGYYFVICLGGLFDVCLSQLLVYKWQSFGFYWRIVVFLW | 78100 |
| PILYFLSLSLSLPPSLSLFLFLYIINQISRFWLVLFQLFFLFLFLLFPSILTS | 62800 |
| PIMVVTLPLPAQITQYYPITLVSVLQWFAFWSFSALLTIPWLLCVYQLVTHSL | 54400 |
| PINAAISNLMLGMLLFCGSLYTLVTFLPIFHSNCPYYTPLSSPWWRILRALGV | 46000 |
| PINALCIILSDDSIKALLQEEFPLKQYRDICNKLDVYLSRRRILGILLYMYPT | 72700 |
| PIPLGYGSLWMYEFLYFCLLHVVFTICDGIYLLRAELTLIILLHFLLSWDEGN | 47600 |
